Data as given in patent US20040214255A1 (MYRIAD GENETICS, published 2004).
Each block holds one binder with its values, some of them ahead of it.

B1: PP5, amino acids 1-150 (enzyme, human, UniProt P53041 1-150, looked up)
chain: MAMAEGERTECAEPPRDEPPADGALKRAEELKTQANDYFKAKDYENAIKFYSQAIELNPSNAIYYGNRSLAYLRTECYGYALGDATRAIELDKKYIKGYYRRAASNMALGKFRAALRDYETVVKVKPHDKDAKMKYQECNKIVKQKAFER
notes: range 1-150; also called Protein phosphatase 5

Tests used:
Test in all cases: yeast two-hybrid
[1] = molecular target: T1, HSP89, amino acids 537-700 (human, UniProt P07900 537-700)
T1 construct: range 537-700
Source text: (§1) The new construct was selected directly in the yeast strain PNY200 for its ability to drive tryptophane synthesis (genotype of this strain: […] trp1-901 leu2-3,112 ura3-52 his3-200 ade2 gal4Δ gal80). In these yeast cells, the bait was produced as a C-terminal fusion protein with the DNA binding domain of the transcription factor Ga14 (amino acids 1 to 147). Prey libraries were transformed into the yeast strain BK100 (genotype of this strain: MATα trp1-901 leu2-3,112 ura3-52 his3-200 gal4Δ gal80 LYS2::GAL-HIS3 GAL2-ADE2 met2::GAL7-lacZ), and selected for the ability to drive leucine synthesis. In these yeast cells, each cDNA was expressed as a fusion protein with the transcription activation domain of the transcription factor Ga14 (amino acids 768 to 881) and a 9 amino acid hemagglutinin epitope tag. PNY200 cells (MATα mating type), expressing the bait, were then mated with BK100 cells (MATa mating type), expressing prey proteins from a prey library. The resulting diploid yeast cells expressing proteins interacting with the bait protein were selected for the ability to synthesize tryptophan, leucine, histidine, and adenine. DNA was prepared from each clone, transformed by electroporation into E. coli strain KC8 (Clontech KC8 electrocompetent cells, Catalog No. C2023-1), and the cells were selected on ampicillin-containing plates in the absence of either tryptophane (selection for the bait plasmid) or leucine (selection for the library plasmid). DNA for both plasmids was prepared and sequenced by the dideoxynucleotide chain termination method. The identity of the bait cDNA insert was confirmed and the cDNA insert from the prey library plasmid was identified using the BLAST program to search against public nucleotide and protein databases. Plasmids from the prey library were then individually transformed into yeast cells together with a plasmid driving the synthesis of lamin and 5 other test proteins, respectively, fused to the Ga14 DNA binding domain. Clones that gave a positive signal in the β-galactosidase assay were considered false-positives and discarded. […] Clones that gave a positive signal in the β-galactosidase assay were considered true positives.

[2] = molecular target: B1
Source text: as §1

[3] = molecular target: T2, β-Spectrin, amino acids 1592-2096 (human, UniProt Q01082 1592-2096)
T2 construct: range 1592-2096; also called non-erythrocytic beta-spectrin; beta spectrin
Source text: as §1

T1 sequence (P07900 537-700): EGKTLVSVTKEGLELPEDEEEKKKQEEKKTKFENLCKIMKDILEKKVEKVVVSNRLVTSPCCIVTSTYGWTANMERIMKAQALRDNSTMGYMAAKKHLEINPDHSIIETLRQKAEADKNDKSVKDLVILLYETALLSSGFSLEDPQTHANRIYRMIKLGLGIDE
T2 sequence (Q01082 1592-2096): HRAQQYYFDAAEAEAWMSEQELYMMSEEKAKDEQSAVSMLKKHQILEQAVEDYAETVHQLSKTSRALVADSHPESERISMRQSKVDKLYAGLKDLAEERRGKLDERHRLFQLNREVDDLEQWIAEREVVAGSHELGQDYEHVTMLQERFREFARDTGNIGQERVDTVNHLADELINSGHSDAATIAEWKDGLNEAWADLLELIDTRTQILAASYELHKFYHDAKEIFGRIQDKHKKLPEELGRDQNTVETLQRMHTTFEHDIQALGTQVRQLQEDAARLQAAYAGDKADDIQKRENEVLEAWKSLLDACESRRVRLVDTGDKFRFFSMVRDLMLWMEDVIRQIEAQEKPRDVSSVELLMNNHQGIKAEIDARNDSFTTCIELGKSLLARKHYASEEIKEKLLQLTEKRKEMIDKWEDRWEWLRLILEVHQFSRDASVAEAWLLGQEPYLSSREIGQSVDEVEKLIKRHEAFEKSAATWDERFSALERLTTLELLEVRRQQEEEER

Binder: B1
binding result [1]: binds

binding result [2]: binds
B2: Tankyrase, amino acids 603-725 (enzyme, human, UniProt O95271 603-725, looked up)
chain: HLQTCRLLLSYGSDPSIISLQGFTAAQMGNEAVQQILSESTPIRTSDVDYRLLEASKAGDLETVKQLCSSQNVNCRDLEGRHSTPLHFAAGYNRVSVVEYLLHHGADVHAKDKGGLVPLHNAC
notes: range 603-725

binding result [3]: binds
B3: Insulin-Regulated Membrane-Spanning Aminopeptidase (IRAP), amino acids 750-1026 (enzyme, human, UniProt Q9UIQ6 750-1025, looked up)
chain: FDLINYLGNENHTAPITEALFQTDLIYNLLEKLGYMDLASRLVTRVFKLLQNQIQQQTWTDEGTPSMRELRSALLEFACTHNLGNCSTTAMKLFDDWMASNGTQSLPTDVMTTVFKVGAKTDKGWSFLLGKYISIGSEAEKNKILEALASSEDVRKLYWLMKSSLNGDNFRTQKLSFIIRTVGRHFPGHLLAWDFVKENWNKLVQKFPLGSYTIQNIVAGSTYLFSTKTHLSEVQAFFENQSEATFRLRCVQEALEVIQLNIQWMEKNLKSLTWWL
notes: range 750-1026; also called C-terminal portion of IRAP
